Source: patent publication US20220340657A1 (L AND L BIO CO LTD NINGBO CHINA, published 2022)

T1: human LAG-3-his (human, UniProt P18627 23-422)
T1 construct: range 23-422; also called hLAG-3-his; hLAG-3
T1 sequence: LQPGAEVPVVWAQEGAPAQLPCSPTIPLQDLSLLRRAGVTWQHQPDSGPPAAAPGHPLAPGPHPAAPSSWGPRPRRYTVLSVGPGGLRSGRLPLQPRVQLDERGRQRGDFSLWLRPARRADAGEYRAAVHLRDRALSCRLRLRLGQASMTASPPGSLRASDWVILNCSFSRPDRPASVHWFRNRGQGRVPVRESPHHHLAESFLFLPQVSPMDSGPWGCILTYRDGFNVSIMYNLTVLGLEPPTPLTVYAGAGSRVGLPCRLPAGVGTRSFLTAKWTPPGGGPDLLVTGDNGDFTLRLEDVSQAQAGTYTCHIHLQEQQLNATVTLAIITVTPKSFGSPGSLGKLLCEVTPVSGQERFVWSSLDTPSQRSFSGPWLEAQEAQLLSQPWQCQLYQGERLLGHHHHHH

T2: bio-LAG3-mFc (human, UniProt P18627 23-450, biotin-labelled)
T2 construct: also called hLAG-3
T2 sequence (looked up): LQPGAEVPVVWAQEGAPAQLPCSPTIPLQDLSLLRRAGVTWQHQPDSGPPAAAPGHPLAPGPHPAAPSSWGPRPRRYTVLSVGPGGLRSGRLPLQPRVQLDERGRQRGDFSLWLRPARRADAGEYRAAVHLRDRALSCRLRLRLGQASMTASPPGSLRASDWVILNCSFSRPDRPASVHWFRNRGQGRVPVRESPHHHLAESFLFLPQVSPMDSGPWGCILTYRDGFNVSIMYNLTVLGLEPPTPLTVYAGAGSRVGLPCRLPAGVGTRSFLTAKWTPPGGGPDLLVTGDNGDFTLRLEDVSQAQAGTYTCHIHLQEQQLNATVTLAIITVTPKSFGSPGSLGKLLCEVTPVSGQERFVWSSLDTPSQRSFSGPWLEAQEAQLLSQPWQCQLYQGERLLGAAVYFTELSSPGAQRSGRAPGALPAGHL


Experiments:
human LAG-3-his [1] = biological target: T1, human LAG-3-his; assay: ELISA on hLAG-3
Description: After discarding the liquid, a blocking solution of 5% skimmed milk (Bright skimmed milk powder) diluted with PBS was added at 230 μl per well, followed by incubating at 37° C. for 3 hours or 4° C. overnight (16-18 hours) for blocking. Subsequently, the blocking solution was discarded, and the micropiate was washed 5 times with PBST buffer (pH 7.4 PBS containing 0.05% tweeen-20). Then 50 μl/well of the supernatant (containing the antibody to be tested) or a starting concentration of 10 μg/ml of the antibody to be tested, which was diluted 5 times in gradient, was added, followed by incubating the mixture for 1 hour at 37° C. […] After washing the microplate 5 times with PBST, 50 μl/well TIMB chromogenic substrate (KPL, Cat. No.: 52-00-03) was added, and then incubated for […] at room temperature. Finally, 50 μl/well of 1 M H₂SO₄ was added to stop the reaction. The absorbance value at 450 nm was read by […] GO microplate reader (ThermoFisher, Cat. No.: 51119200). The clones with high affinity were selected according to the OD value or the EC₅₀ value was calculated (for antibodies with known concentrations).

bio-LAG3-mFc = biological target: T2, bio-LAG3-mFc; assay: blocking ELISA, LAG-3 on Daudi cells
human PD-1 (hFc/his tag) = biological target: T3, human PD-1 (hFc/his tag) (human, UniProt Q15116 21-167); assay: ELISA on human PD-1
T3 construct: range 21-167; not shown: hFc or his tag

human LAG-3-his [2] = biological target: T1, human LAG-3-his; assay: ELISA on human LAG-3

T3 sequence (Q15116 21-167, form in doubt): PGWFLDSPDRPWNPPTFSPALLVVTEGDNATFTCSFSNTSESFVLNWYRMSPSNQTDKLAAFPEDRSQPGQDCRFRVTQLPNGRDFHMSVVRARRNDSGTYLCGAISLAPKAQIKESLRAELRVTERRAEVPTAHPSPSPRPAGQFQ

Row | Binder | EC50 (human LAG-3-his [1]) [nM] | IC50 (bio-LAG3-mFc) [nM] | EC50 (human PD-1 (hFc/his tag)) [nM] | EC50 (human LAG-3-his [2]) [nM]
1 | Ab2320 (antibody, human IgG4 S228P, kappa, V domains shown, human kappa / hIgG4) VH: QVQLVQSGAEVKKPGASVKVSCKASGYTFTDYEMHWVKQAPGQGLEWIGGIDPETEGIAYNQKFRGRATMTTDKSTSTAYMELRSLRSDDTAVYYCTNSNYYGGREAWFAYWGQGTLVTVSS VL: DIQMTQSPSSLSASVGDRVTITCRASQDIGSSLNWLQQKPGKAIKRLIYATSSLDSGVPSRFSGSGSGTDYTLTISSLQPEDFATYYCLQYVTSPLTFGGGTKVEIKR | 1.01 | 1.32 |  | 
2 | LB2383 (bispecific antibody, human IgG4 S228P, kappa) light: EIVLTQSPATLSLSPGERATLSCRASKGVSTSGYSYLHWYQQKPGQAPRLLIYLASYLESGVPARFSGSGSGTDFTLTISSLEPEDFAVYYCQHSRDLPLTFGGGTKVEIKRTVAAPSVFIFPPSDEQLKSGTASVVCLLNNFYPREAKVQWKVDNALQSGNSQESVTEQDSKDSTYSLSSTLTLSKADYEKHKVYACEVTHQGLSSPVTKSFNRGEC heavy: not shown |  |  | 0.138 | 0.237
3 | LB2381 (bispecific antibody, human IgG4 S228P, kappa) light: DIQMTQSPSSLSASVGDRVTITCRASQDIGSSLNWYQQKPGKAPKRLIYATSSLDSGVPSRFSGSRSGSDFTLTISSLQPEDFATYYCLQYVTSPLTFGGGTKVEIKGGGGSGGGGSGGGGSQVQLVQSGAEVKKPGASVKVSCKASGYTFTDYEMHWVKQAPGQGLEWIGGIDPETEGIAYNQKFRGRATLTADKSTSTAYMELRSLRSDDTAVYYCTNSNYYGGREAWFAYWGQGTLVTVSSGGGGSGGGGSGGGGSEIVLTQSPATLSLSPGERATLSCRASKGVSTSGYSYLHWYQQKPGQAPRLLIYLASYLESGVPARFSGSGSGTDFTLTISSLEPEDFAVYYCQHSRDLPLTFGGGTKVEIKRTVAAPSVFIFPPSDEQLKSGTASVVCLLNNFYPREAKVQWKVDNALQSGNSQESVTEQDSKDSTYSLSSTLTLSKADYEKHKVYACEVTHQGLSSPVTKSFNRGEC heavy: not shown |  |  | 0.332 | 0.79
4 | LB2382 (bispecific antibody, human IgG4 S228P, kappa) light: EIVLTQSPATLSLSPGERATLSCRASKGVSTSGYSYLHWYQQKPGQAPRLLIYLASYLESGVPARFSGSGSGTDFTLTISSLEPEDFAVYYCQHSRDLPLTFGGGTKVEIKRTVAAPSVFIFPPSDEQLKSGTASVVCLLNNFYPREAKVQWKVDNALQSGNSQESVTEQDSKDSTYSLSSTLTLSKADYEKHKVYACEVTHQGLSSPVTKSFNRGECGGGGSGGGGSGGGGSQVQLVQSGAEVKKPGASVKVSCKASGYTFTDYEMHWVKQAPGQGLEWIGGIDPETEGIAYNQKFRGRATLTADKSTSTAYMELRSLRSDDTAVYYCTNSNYYGGREAWFAYWGQGTLVTVSSGGGGSGGGGSGGGGSDIQMTQSPSSLSASVGDRVTITCRASQDIGSSLNWYQQKPGKAPKRLIYATSSLDSGVPSRFSGSRSGSDFTLTISSLQPEDFATYYCLQYVTSPLTFGGGTKVEIK heavy: not shown |  |  | 0.309 | 0.951
5 | Ab2314 (antibody, human IgG4 S228P, kappa, V domains shown, human kappa / hIgG4) VH: QVQLVQSGAEVKKPGASVKVSCKASGYTFTDYEMHWVKQAPGQGLEWIGGIDPETEGIAYNQKFRGRATLTADKSTSTAYMELRSLRSDDTAVYYCTNSNYYGGREAWFAYWGQGTLVTVSS VL: DIQMTQSPSSLSASVGDRVTITCRASQDIGSSLNWLQQKPGKAIKRLIYATSSLDSGVPSRFSGSRSGSDYTLTISSLQPEDFATYYCLQYVTSPLTFGGGTKVEIKR | 0.237 | 1.22 |  | 
6 | Ab2319 (antibody, human IgG4 S228P, kappa, V domains shown, human kappa / hIgG4) VH: QVQLVQSGAEVKKPGASVKVSCKASGYTFTDYEMHWVKQAPGQGLEWIGGIDPETEGIAYNQKFRGRATMTTDKSTSTAYMELRSLRSDDTAVYYCTNSNYYGGREAWFAYWGQGTLVTVSS VL: DIQMTQSPSSLSASVGDRVTITCRASQDIGSSLNWLQQKPGKAIKRLIYATSSLDSGVPSRFSGSRSGSDYTLTISSLQPEDFATYYCLQYVTSPLTFGGGTKVEIKR | 0.764 | 1.85 |  | 

More lines, in order of falling EC50 (human LAG-3-his [1]), values ahead:

Row | EC50 (human LAG-3-his [1]) [nM] | IC50 (bio-LAG3-mFc) [nM] | EC50 (human PD-1 (hFc/his tag)) [nM] | EC50 (human LAG-3-his [2]) [nM] | Binder
7 | 0.307 | 1.5 |  |  | Ab2316 (antibody, human IgG4 S228P, kappa, V domains shown, human kappa / hIgG4) VH: QVQLVQSGAEVKKPGASVKVSCKASGYTFTDYEMHWVKQAPGQGLEWIGGIDPETEGIAYNQKFRGRATLTADKSTSTAYMELRSLRSDDTAVYYCTNSNYYGGREAWFAYWGQGTLVTVSS VL: DIQMTQSPSSLSASVGDRVTITCRASQDIGSSLNWLQQKPGKAIKRLIYATSSLDSGVPSRFSGSRSGSDFTLTISSLQPEDFATYYCLQYVTSPLTFGGGTKVEIKR
8 | 0.28 | 0.86 |  |  | Ab2318 (antibody, human IgG4 S228P, kappa, V domains shown, human kappa / hIgG4) VH: QVQLVQSGAEVKKPGASVKVSCKASGYTFTDYEMHWVKQAPGQGLEWIGGIDPETEGIAYNQKFRGRATLTADKSTSTAYMELRSLRSDDTAVYYCTNSNYYGGREAWFAYWGQGTLVTVSS VL: DIQMTQSPSSLSASVGDRVTITCRASQDIGSSLNWLQQKPGKAIKRLIYATSSLDSGVPSRFSGSRSGTDFTLTISSLQPEDFATYYCLQYVTSPLTFGGGTKVEIKR
9 | 0.221 | 3.22 |  |  | Ab2313 (antibody, human IgG4 S228P, kappa, V domains shown, human kappa / hIgG4) VH: QVQLVQSGAEVKKPGASVKVSCKASGYTFTDYEMHWVKQAPGQGLEWIGGIDPETEGIAYNQKFRGRATLTADKSTSTAYMELRSLRSDDTAVYYCTNSNYYGGREAWFAYWGQGTLVTVSS VL: DIQMIQSPSSLSASVGDRVTITCRASQDIGSSLNWLQQKPGGAIKRLIYATSSLDSGVPSRFSGSRSGSDYSLTISSLQPEDFATYYCLQYVTSPLTFGGGTKVEIKR
10 | 0.181 | 2.18 |  |  | Ab2315 (antibody, human IgG4 S228P, kappa, V domains shown, LG2315 / LG2343, human kappa / hIgG4) VH: QVQLVQSGAEVKKPGASVKVSCKASGYTFTDYEMHWVKQAPGQGLEWIGGIDPETEGIAYNQKFRGRATLTADKSTSTAYMELRSLRSDDTAVYYCTNSNYYGGREAWFAYWGQGTLVTVSS VL: DIQMTQSPSSLSASVGDRVTITCRASQDIGSSLNWLQQKPGKAIKRLIYATSSLDSGVPSRFSGSGSGTDYTLTISSLQPEDFATYYCLQYVTSPLTFGGGTKVEIKR
11 | 0.131 | 2.32 |  |  | Ab2322 (antibody, human IgG4 S228P, kappa, V domains shown, human kappa / hIgG4) VH: QVQLVQSGAEVKKPGASVKVSCKASGYTFTDYEMHWVKQAPGQGLEWIGGIDPETEGIAYNQKFRGRATMTTDTSTSTAYMELRSLRSDDTAVYYCTNSNYYGGREAWFAYWGQGTLVTVSS VL: DIQMTQSPSSLSASVGDRVTITCRASQDIGSSLNWYQQKPGKAPKRLIYATSSLDSGVPSRFSGSRSGSDFTLTISSLQPEDFATYYCLQYVTSPLTFGGGTKVEIKR
